Target: T1, rSsp2 SM101 (Clostridium perfringens SM101 (type A), UniProt P21886 1-59)
T1 sequence: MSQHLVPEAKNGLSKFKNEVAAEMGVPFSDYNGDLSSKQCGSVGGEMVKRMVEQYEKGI
Assay: EMSA; glutaraldehyde-fixed; preferred probe
Conditions: protein: recombinant; tags: His6; label: 3'-biotin; blunt

B1: GC-rich probe (69.1% GC), Label-D2/Label-R2 (dsDNA)
DNA 1: CTGGCGACTCAGAAGGGGCTCGAACCCTCGACCTCCGGCGTGACAGGCCGGCACT
DNA 2: AGTGCCGGCCTGTCACGCCGGAGGTCGAGGGTTCGAGCCCCTTCTGAGTCGCCAG
binding result: binds

— article PMC2706996
